Bridges are numbered along the chain shown (N, C = ends). [ ]: non-standard residue; d: D form.
Columns and labels:
[1] = target: HIV-1 HXB2 envelope glycoprotein gp41 (N-trimer of the prehairpin intermediate) (HIV-1 strain HXB2, UniProt P04578 512-856); test: cell-based or functional assay
[2] = target: HIV-1 JRFL envelope glycoprotein gp41 (N-trimer of the prehairpin intermediate) (HIV-1 strain JRFL); test: cell-based or functional assay

Ac-[dH][dP][dC][dD][dY][dP][dE][dW][dQ][dW][dL][dC][dR][dL]G[dK]-NH2 (disulfide 3-12 (inferred)) [PIE14]
IC50, HXB2 pseudovirion entry [1]: 33 nM
IC50, JRFL pseudovirion entry [2]: 1050 nM

Ac-G[dA][dC][dD][dY][dP][dE][dW][dQ][dW][dL][dC][dA][dA]G[dK]-NH2 (disulfide 3-12 (inferred); also: dimer, C- to C-terminal link by PEG5 spacer) [C5C(PIE7-GK)2]
IC50, HXB2 pseudovirion entry [1]: 0.36 nM
IC50, JRFL pseudovirion entry [2]: 200 nM

Ac-G[dA][dC][dD][dY][dP][dE][dW][dQ][dW][dL][dC][dA][dA]G[dK]-NH2 (disulfide 3-12 (inferred); also: dimer, C- to C-terminal link by PEG9 spacer) [C9C(PIE7-GK)2]
IC50, HXB2 pseudovirion entry [1]: 0.35 nM
IC50, JRFL pseudovirion entry [2]: 220 nM

Ac-[dK]G[dA][dC][dD][dY][dP][dE][dW][dQ][dW][dL][dC][dA][dA]-NH2 (disulfide 4-13 (inferred); also: dimer linked N- to C-terminal by PEG5 spacer) [N5C(PIE7)2]
IC50, HXB2 pseudovirion entry [1]: 0.58 nM
IC50, JRFL pseudovirion entry [2]: 300 nM

B1: N0N(PIE7)2 (peptide)
peptide: Ac-[dK]G[dA][dC][dD][dY][dP][dE][dW][dQ][dW][dL][dC][dA][dA]-NH2
modifications: disulfide 4-13 (inferred); also: dimer, N- to N-terminal link by zero length spacer
IC50, HXB2 pseudovirion entry [1]: 0.8 nM
IC50, JRFL pseudovirion entry [2]: 1090 nM

B2: N0C(PIE7)2 (peptide)
peptide: Ac-[dK]G[dA][dC][dD][dY][dP][dE][dW][dQ][dW][dL][dC][dA][dA]-NH2
modifications: disulfide 4-13 (inferred); also: dimer linked N- to C-terminal by zero-length spacer
IC50, HXB2 pseudovirion entry [1]: 0.53 nM
IC50, JRFL pseudovirion entry [2]: 400 nM

Ac-[dK][dK]G[dA][dC][dE][dS][dP][dE][dW][dR][dW][dL][dC][dA][dA]-NH2 (disulfide 5-14 (inferred)) [2K-PIE1]
IC50, HXB2 pseudovirion entry [1]: 2.2 nM
IC50, JRFL pseudovirion entry [2]: > 100000 nM

Ac-[dH][dA][dC][dD][dY][dP][dE][dW][dQ][dW][dL][dC][dE][dL]G[dK]-NH2 (disulfide 3-12 (inferred)) [PIE15]
IC50, HXB2 pseudovirion entry [1]: 67 nM
IC50, JRFL pseudovirion entry [2]: 1450 nM

Ac-[dK]G[dA][dC][dD][dY][dP][dE][dW][dQ][dW][dL][dC][dA][dA]-NH2 (disulfide 4-13 (inferred); also: dimer linked N- to C-terminal by PEG9 spacer) [N9C(PIE7)2]
IC50, HXB2 pseudovirion entry [1]: 0.33 nM
IC50, JRFL pseudovirion entry [2]: 310 nM

Ac-[dK]G[dA][dC][dD][dY][dP][dE][dW][dQ][dW][dL][dC][dA][dA]-NH2 (disulfide 4-13 (inferred); also: trimer linked by PEG9 spacers) [N9N(PIE7)3]
IC50, HXB2 pseudovirion entry [1]: 0.25 nM
IC50, JRFL pseudovirion entry [2]: 220 nM

Ac-[dK]G[dA][dC][dD][dY][dP][dE][dW][dQ][dW][dL][dC][dA][dA]-NH2 (disulfide 4-13 (inferred); also: dimer, N- to N-terminal link by PEG5 spacer) [N5N(PIE7)2]
IC50, HXB2 pseudovirion entry [1]: 1.1 nM
IC50, JRFL pseudovirion entry [2]: 1410 nM
